Assay results reported in the RNAGym collection of RNA variant scans (doi:10.7554/elife.90254).

B1: OR4K15 (parent)
chain: GUUAACGGUCAUAGGCCAUGGAAACUAGGAGCACCAUUUCGCUGCCAGUGAAGAAAUGAACAAAGAAAAUCUGGGCCAGGCAGGCAUCAAAAGAAAUAGUCUUGCGCUCAACCAGAAAGUCUGUAAUCAUUUUAAGGGUA

Variants of: B1
Assay: self-cleavage, relative activity (ratio to wild type); higher = more cleavage; in vitro, sequencing; the parent is a self-cleaving ribozyme
U12A U139C showed a self-cleavage of 1.59. In the case of A13U A67G, the self-cleavage is reported as 1.14. A13G A18G gave a self-cleavage of 1.3. For A13G A18U, the self-cleavage was 0.89. In the case of A13C A135G, the self-cleavage is reported as 1.04. With A11U A22G the self-cleavage was 1.53. U12A A95G showed a self-cleavage of 1.29. U12A A78G showed a self-cleavage of 0.2. A11G U100C gave a self-cleavage of 1.06. Work on U12C A92G yielded a self-cleavage of 0.58. With A11U A94G the self-cleavage was 0.71. For G14A C71U, the self-cleavage was 0.37. In the case of A13U A66G, the self-cleavage is reported as 1.49. Work on A11G U87C yielded a self-cleavage of 1.14. U12A A140G gave a self-cleavage of 1.5. With A13G A89U the self-cleavage was 1.09. For U12C U102A, the self-cleavage was 1.94. U12C U124C showed a self-cleavage of 0.67. In the case of A13U C107U, the self-cleavage is reported as 0. A13U C34U showed a self-cleavage of 1.2. A11G G48A gave a self-cleavage of 1.9. For A11G U39A, the self-cleavage was 0.88. Work on U12C U131C yielded a self-cleavage of 1.28. Work on A11U C40A yielded a self-cleavage of 1.2. U12C G41A gave a self-cleavage of 1.35. G14A A140G showed a self-cleavage of 1.89. Work on A13U U97C yielded a self-cleavage of 1.4. A13G U38C showed a self-cleavage of 1.14. Variant G14U A54G has a self-cleavage of 1.65. With U12C A56G the self-cleavage was 0.93. With A13C A30G the self-cleavage was 1.49. U12C U87C gave a self-cleavage of 0.75. Work on U12C A63G yielded a self-cleavage of 1.43. Work on U12C A63C yielded a self-cleavage of 1.12. Variant A13G C109A has a self-cleavage of 0.6. In the case of G14A A90C, the self-cleavage is reported as 0.98. Variant U12C A22G has a self-cleavage of 0.98. Variant G14A A134U has a self-cleavage of 0.5. A13G A126U gave a self-cleavage of 0.88. In the case of U12A A91G, the self-cleavage is reported as 1.57. Variant G14A A78U has a self-cleavage of 0.22. In the case of A13G U127A, the self-cleavage is reported as 1.91. In the case of A13G A118C, the self-cleavage is reported as 0.41. With A11U A54G the self-cleavage was 0. A11U A51G gave a self-cleavage of 1.48. A11G G73A showed a self-cleavage of 0.14. Work on A13G G65A yielded a self-cleavage of 1.2. With A11G U103A the self-cleavage was 0.77. Variant U12A A18G has a self-cleavage of 1.65. U12C A24G gave a self-cleavage of 1.09. With A13U U108C the self-cleavage was 0.01. With A11U U108A the self-cleavage was 0.02. With A11U U108C the self-cleavage was 0.01. A13U A90C showed a self-cleavage of 1.69. A11U A126G showed a self-cleavage of 0.81. With U12C U122G the self-cleavage was 2.09. Work on A13G U43C yielded a self-cleavage of 0.98. Work on U12A A63G yielded a self-cleavage of 0.6. Work on A11U A63U yielded a self-cleavage of 1.56. Work on A11U A116U yielded a self-cleavage of 0.5. For A13G A27G, the self-cleavage was 1.15. With A11U A67G the self-cleavage was 1.5. With A11U A33G the self-cleavage was 0.98. With A13U A47U the self-cleavage was 1.24. With U12C U19A the self-cleavage was 1.05. With A11G G50U the self-cleavage was 1.02. Variant A11G G29A has a self-cleavage of 0.57. For G14C A89G, the self-cleavage was 2.26. U12C A68G gave a self-cleavage of 1.21. With U12A U70C the self-cleavage was 0.41. In the case of U12C A78G, the self-cleavage is reported as 0.31. With U12C A67G the self-cleavage was 1.33. Work on A13G A95U yielded a self-cleavage of 2.06. In the case of A13G A95G, the self-cleavage is reported as 1. Work on A13G A56G yielded a self-cleavage of 1.04. In the case of A13G A56U, the self-cleavage is reported as 1.33. Variant A13G U72C has a self-cleavage of 0.54. In the case of G14C, the self-cleavage is reported as 1.4. In the case of G14A, the self-cleavage is reported as 1.24. Work on G14U yielded a self-cleavage of 1.11. U12A C77U showed a self-cleavage of 1.45. In the case of A11U U103C, the self-cleavage is reported as 0.73. In the case of U12C A118G, the self-cleavage is reported as 0.61.
